Measurements as given in patent US20160115217A1.

Columns and labels:
[1] = molecular target: Flt1 (VEGFR-1) on Ad-N1IC-transduced HUVEC (human) (UniProt P17948); test: cell-based or functional assay
[2] = molecular target: Notch1 (full-length receptor expressed on cells); test: cell-based or functional assay

Chain of Flt1 (VEGFR-1) on Ad-N1IC-transduced HUVEC (human) (P17948 27-1338): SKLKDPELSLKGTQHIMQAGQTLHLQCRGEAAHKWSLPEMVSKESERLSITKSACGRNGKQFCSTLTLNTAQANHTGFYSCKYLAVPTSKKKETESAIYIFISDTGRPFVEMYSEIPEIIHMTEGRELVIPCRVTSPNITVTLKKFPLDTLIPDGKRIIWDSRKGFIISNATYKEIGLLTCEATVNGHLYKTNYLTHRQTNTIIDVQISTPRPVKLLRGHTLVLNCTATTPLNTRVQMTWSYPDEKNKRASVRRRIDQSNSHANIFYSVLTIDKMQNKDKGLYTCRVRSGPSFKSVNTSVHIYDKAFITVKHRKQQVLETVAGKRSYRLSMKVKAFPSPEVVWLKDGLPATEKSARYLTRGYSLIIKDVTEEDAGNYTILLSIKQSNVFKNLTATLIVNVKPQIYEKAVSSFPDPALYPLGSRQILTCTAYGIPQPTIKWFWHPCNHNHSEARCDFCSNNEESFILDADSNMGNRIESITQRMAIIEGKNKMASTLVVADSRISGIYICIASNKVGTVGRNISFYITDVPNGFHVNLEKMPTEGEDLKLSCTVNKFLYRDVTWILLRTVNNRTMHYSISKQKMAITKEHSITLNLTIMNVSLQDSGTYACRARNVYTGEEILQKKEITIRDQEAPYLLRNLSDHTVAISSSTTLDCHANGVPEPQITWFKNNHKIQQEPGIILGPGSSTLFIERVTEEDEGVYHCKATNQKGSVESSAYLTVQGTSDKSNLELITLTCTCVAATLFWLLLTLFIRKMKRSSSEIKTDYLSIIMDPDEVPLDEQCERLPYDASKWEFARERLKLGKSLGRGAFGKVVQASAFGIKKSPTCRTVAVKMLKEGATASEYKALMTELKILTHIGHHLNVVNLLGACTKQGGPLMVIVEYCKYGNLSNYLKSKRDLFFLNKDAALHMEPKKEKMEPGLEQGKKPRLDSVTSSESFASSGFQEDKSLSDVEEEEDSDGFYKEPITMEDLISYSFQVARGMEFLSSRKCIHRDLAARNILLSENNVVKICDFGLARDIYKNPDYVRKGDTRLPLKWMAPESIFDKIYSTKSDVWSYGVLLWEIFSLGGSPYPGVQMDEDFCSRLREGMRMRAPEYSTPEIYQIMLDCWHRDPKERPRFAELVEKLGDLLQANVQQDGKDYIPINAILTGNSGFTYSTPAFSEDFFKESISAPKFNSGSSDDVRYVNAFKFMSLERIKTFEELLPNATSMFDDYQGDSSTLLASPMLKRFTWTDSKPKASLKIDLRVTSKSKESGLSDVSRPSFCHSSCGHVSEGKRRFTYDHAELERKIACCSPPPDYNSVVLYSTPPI

Row | HUVEC buds containing multiple filopodia [1] | Hes1 reporter gene activity [2] | Substance
1 | 250% |  | P1GF (placental growth factor) (ligand)
2 |  | 3.7 fold | Jagged1 (ligand)
